PMC4923902 (Scientific Reports, 2016)

B1: arrestin I72NBD (natural protein, bovine, UniProt P08168 1-404, looked up)
chain: MKANKPAPNHVIFKKISRDKSVTIYLGKRDYIDHVERVEPVDGVVLVDPELVKGKRVYVSLTAAFRYGQEDCDVMGLSFRRDLYFSQVQVFPPVGASGATTRLQESLIKKLGANTYPFLLTFPDYLPSSVMLQPAPQDVGKSAGVDFEIKAFATHSTDVEEDKIPKKSSVRLLIRKVQHAPRDMGPQPRAEASFQFFMSDKPLRLAVSLSKEIYYHGEPIPVTVAVTNSTEKTVKKIKVLVEQVTNVVLYSSDYYIKTVAAEEAQEKVPPNSSLTKTLTLVPLLANNRERRGIALDGKIKHEDTNLASSTIIKEGIDKTVMGILVSYQIKVKLTVSGLLGELTSSEVATEVPFRLMHPQPEDPDTAKESFQDENFVFEEFARQNLKDAGEYKEEKTDQEAAMDE
modifications: NBD fluorophore (IANBD) on the cysteine at site 72
notes: recombinant bovine arrestin-1 mutant; also called arrestin-1 C63A, C128S, C143A, W194F, I72C labelled with IANBD; source: E. coli, purified
B2: arrestin I299B/L173W (natural protein, bovine, UniProt P08168 1-404, looked up)
chain: MKANKPAPNHVIFKKISRDKSVTIYLGKRDYIDHVERVEPVDGVVLVDPELVKGKRVYVSLTAAFRYGQEDIDVMGLSFRRDLYFSQVQVFPPVGASGATTRLQESLIKKLGANTYPFLLTFPDYLPSSVMLQPAPQDVGKSAGVDFEIKAFATHSTDVEEDKIPKKSSVRLWIRKVQHAPRDMGPQPRAEASFQFFMSDKPLRLAVSLSKEIYYHGEPIPVTVAVTNSTEKTVKKIKVLVEQVTNVVLYSSDYYIKTVAAEEAQEKVPPNSSLTKTLTLVPLLANNRERRGIALDGKCKHEDTNLASSTIIKEGIDKTVMGILVSYQIKVKLTVSGLLGELTSSEVATEVPFRLMHPQPEDPDTAKESFQDENFVFEEFARQNLKDAGEYKEEKTDQEAAMDE
modifications: bimane fluorophore (monobromobimane) on the cysteine at site 299
notes: recombinant bovine arrestin-1 mutant; also called arrestin-1 C63A, C128S, C143A, W194F, L173W, I299C labelled with monobromobimane; source: E. coli, purified

Experiments:
phosphorylated opsin [1] = target: T1, phosphorylated opsin (bovine, UniProt P02699 1-348, phosphorylated on the C-terminus by endogenous GRK1 (sites not given); no retinal (apo-protein)); experiment: site-directed steady-state fluorescence; 1 uM labelled arrestin with 6 uM Ops-P in ROS membranes, 50 mM HEPES pH 8, low salt, 20 °C; settings: one partner purified
T1 construct: bovine opsin (apo-protein of rhodopsin), endogenous in ROS membranes; in isolated, washed ROS disc membranes, not on whole cells; also called Ops-P; OpsP
T1 sequence (P02699 whole entry): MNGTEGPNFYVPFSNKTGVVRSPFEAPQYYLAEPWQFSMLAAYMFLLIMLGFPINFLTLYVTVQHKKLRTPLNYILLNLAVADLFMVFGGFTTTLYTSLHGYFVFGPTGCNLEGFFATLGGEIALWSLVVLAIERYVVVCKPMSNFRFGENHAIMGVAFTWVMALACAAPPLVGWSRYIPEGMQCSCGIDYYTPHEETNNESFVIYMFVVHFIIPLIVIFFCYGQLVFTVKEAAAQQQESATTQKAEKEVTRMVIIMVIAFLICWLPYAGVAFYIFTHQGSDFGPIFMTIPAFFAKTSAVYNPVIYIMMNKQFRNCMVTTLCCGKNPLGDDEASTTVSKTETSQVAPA

phosphorylated opsin [2] = target: T1, phosphorylated opsin; experiment: site-directed steady-state fluorescence; 1 uM labelled arrestin with 6 uM receptor in ROS membranes, 50 mM HEPES pH 7, low salt, 20 °C; settings: one partner purified

| Binder | fluorescence increase relative to that with Meta II-P (phosphorylated opsin [1]) | fluorescence increase relative to that with Meta II-P (phosphorylated opsin [2]) | fluorescence change relative to that with Meta II-P (phosphorylated opsin [1]) |
| --- | --- | --- | --- |
| B1 | ~18% | ~45% | – |
| B2 | – | – | ~38% |
